# The RNAGym collection of RNA variant scans (doi:10.1073/pnas.2313332121)
# Variants at the floor of the assay were thinned out.
# B1: TPR 5TU (parent)
# chain: GGAUCUUCUCGAUCUAACAAAAAAGACAAAUCUGCCACAAAGCUUGAGAGCAUCUUCGGAUGCAGAGGCGGCAGCCUUCGGUGGCGCGAUAGCGCCAACGUUCUCAACUAUGACACGCAAAACGCGUGCUCCGUUGAAUGGAGUUUAUCAUG
# Variants of: B1
# Assay: polymerase ribozyme fitness, log enrichment relative to wild type (log ratio); higher = more active; in vitro selection for triplet polymerase activity
# Outline: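 Mutant libraries of each subunit of a heterodimeric triplet polymerase ribozyme were built by PCR and transcribed. Each library went through one round of in vitro selection in triplicate: annealing with biotinylated primer, partner subunit and triplets, frozen incubation at −7 °C, gel excision of extended constructs, streptavidin-bead capture and RT-PCR. Input and output libraries were Illumina-sequenced; only genotypes with ≥10 input reads and ≥1 read per output were kept. Fitness is log2(genotype enrichment/wild-type enrichment), using inverse-variance-weighted replicate averages.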
row,Variant,polymerase ribozyme fitness (log ratio)
1,A17G C57U C96U U127C C131A G133U U146C,≤ -4.2
2,A17G C18G A40C C85G A106U G124U C125U,≤ -4.2
3,A17U G83A C96U C125U C129U,-1.96
4,A17U A29C C43G G86A U135C,-4.06
5,C18A A22C A23U A37C C72U G88A C125U U146G,≤ -4.2
6,A17G U33G C79G G84A U134G,≤ -4.2
7,C18G C27U A40U C51U A52C C57G G88U C105U,≤ -4.2
8,A17G G58C C72U G152A,-2.87
9,C18G A24G C57U C93G G94C G117C,≤ -4.2
10,A17G G58A,1.26
11,A17U C18U A20G C93U A115G,-4.19
12,A17G A29C A107U U135G,≤ -4.2
13,A17G C63A C118G A142U,-2.32
14,C18G A49C G67U G84U A107U,≤ -4.2
15,C18A A21U A29U U56A C95A A137G A142C,≤ -4.2
16,A17U C36G G67U C87G C95G C99A C103A,≤ -4.2
17,A17U A49U C85A A97U,≤ -4.2
18,A17U A52U C57U C96U A98U C103G A121C G140C,≤ -4.2
19,A17U C32U G128U,≤ -4.2
20,A17U C95U,-0.895
21,C18G A20C A52G A73U A120G,-3.02
22,C18A A21U A52G C54U G92A C103A,≤ -4.2
23,A17G C35A A40C G67U C96A C129G,≤ -4.2
24,A17G G84C,-1.85

row,Variant,polymerase ribozyme fitness (log ratio)
1,A17U C54A G92U C149U,-2.92
2,A17U A41U G86U A113C,≤ -4.2
3,A17G G58A C93U U101G U139A,≤ -4.2
4,A17G C96G,-1.29
5,A17G C96U,0.456
6,A17U U33G G34C A47G,≤ -4.2
7,A17U A20U G50C,≤ -4.2
8,A17U C114U,-1.91
9,C18A A20U G71C G92C G143U U144G,≤ -4.2
10,C18A U33A U56A G88A C114U U130A,≤ -4.2
11,A17U A29C A66C C95A C132G,≤ -4.2
12,A17G C35U G83A,-0.796
13,C18G A26U G86C A150U,-3.07
14,A17U U101G,0.484
15,A17U C54A,-1.45
16,C18G A20C G34U U55G C118U C123U,-4.18
17,A17G C76U,-0.119
18,C18G C54U U56A A73G A91G,-3.27
19,A17U A60U,-0.153
20,A17U C38A U53A G81C C95U U104G,-4
21,C18G A64C U82G A137G,≤ -4.2
22,A17U G94C C132U,-1.54
23,A17U G92U U101G U127G U148A,-4.01
24,A17U C35A A47U A66C A73U G86A A91C U109G,≤ -4.2

row,Variant,polymerase ribozyme fitness (log ratio)
1,A17G A49U G83U,-3.31
2,A17G C95U G141A,0.672
3,A17U G100A A120C A150U,≤ -4.2
4,A17U G58C C95U C99A,-1.96
5,A17G G62C G81A,-1.76
6,A17U U31G G50C U78G U90G C96G,≤ -4.2
7,A17U A19C G42U U56C C76A G88A,≤ -4.2
8,A17G A147U,1.55
9,A17U C87U,-1.75
10,C18A U56A G58C G94A,-0.964
11,A17G A39C G68C C93G,≤ -4.2
12,C18G A20G G25C U33G G68U C96U A98G,≤ -4.2
13,A17U A19G C36U G42C G50A A73U A147C,≤ -4.2
14,A17G G50U A66G G92C C95U G141A,≤ -4.2
15,A17U U56G C125G,-1.81
16,A17U A47C C51G U61A G83A,≤ -4.2
17,A17U A20C C57U A60U C93A G94U A122C G126U,≤ -4.2
18,C18G A41C C85A G126U,-0.946
19,A17G G86U A97U,-2.08
20,A17U A41C G94C,-1.13
21,A17G C51U U55G C79U G83U C95A C118G U145C,≤ -4.2
22,A17U A28C C87A,≤ -4.2
23,C18A A26U G84A A138G,≤ -4.2
24,C18A A28G A30C G46A G74C,≤ -4.2

row,Variant,polymerase ribozyme fitness (log ratio)
1,C18G A24C G34A C57A C85U A89U A97G A120G A121U,≤ -4.2
2,A17U U44A C54G U55G G62C C87A C99U A150G G152C,≤ -4.2
3,A17U A52C A64C G133A A138C,≤ -4.2
4,A17C U102A,-0.663
5,A17U C18A C54U U55G C75U C95A,-1.89
6,A17G G25C G50A G86A C93G,≤ -4.2
7,C18A A30G C38U G48C G71A A89U C96U A97C,≤ -4.2
8,A17U C93U,-1.07
9,C18A A20U C27G A30U U56G A64U G84U U102C G112U G124C,≤ -4.2
10,A17G A28U G71A A121G,≤ -4.2
11,C18G C54U U78C,-2.12
12,A17U G50A,-2.57
13,C18G A19U G83U C95U C118U U144A,-3.01
14,A17G G34A U56A G59A U78G,≤ -4.2
15,A17U C87U C96U U104C A107U G141U,≤ -4.2
16,A17U G71A C87G G140U,≤ -4.2
17,A17U G50C G68C C85G G94A A106U C123U U134A U135A,≤ -4.2
18,A17U A22U C51U U55A C75A C85U U101A C114U A115G G124A,≤ -4.2
19,A17U U31G C32A A150G,≤ -4.2
20,A17U C87U C125U,-1.39
21,A17U U53G C99A C125G G141U U146C,≤ -4.2
22,A17U U55G G68U G84A C103A G152A,≤ -4.2
23,A17U A39G G50C A52C C96U C118U,≤ -4.2
24,A17G A29C C32G G48C,≤ -4.2

row,Variant,polymerase ribozyme fitness (log ratio)
1,C18G A37C C96G A106G,-1.07
2,A17G U53A C75G A91G A113G G143A,≤ -4.2
3,A17G A37U A47U C85U,-1.62
4,A17U C95U C99A A107G G133U,≤ -4.2
5,A17U A24C A26G C57U G86A,≤ -4.2
6,A17U G83U,-1.65
7,A17U G84U,-1.75
8,A17G A19U C93U U102C G136A U148A,≤ -4.2
9,A17U G50U C63U C93U C103U G126A C132U,-3.74
10,A17G G42C C43A C85A G143U,≤ -4.2
11,A17U A19C C87G A89U,≤ -4.2
12,A17G A22C U61A G84U C96U U109A U111A G141A,≤ -4.2
13,A17U C27G G58C C96A C116U,≤ -4.2
14,C18A A20C U82C A122C,-1.71
15,A17U G59C G86C A113U,≤ -4.2
16,A17U A22C A23G G25A G50C U55A C75A G80A C87U U90C C103A,≤ -4.2
17,A17U A19G A30G C38G U45A G88U,≤ -4.2
18,A17U A22U U90G C125A U139C,≤ -4.2
19,A17G C99U,-0.271
20,A17U G67C A91C C95U G100U A106U,≤ -4.2
21,C18G A113G U134A,-3.95
22,A17G A22G U82C C99A,-2.88
23,A17U A21G A22C C38U A66U U82C G100A C125U,≤ -4.2
24,C18G A37G A66G G68C C93A G128A,≤ -4.2

row,Variant,polymerase ribozyme fitness (log ratio)
1,C18A A19G C57A C87U C129A U135G,≤ -4.2
2,C18G A23C A29G C51U C72G G81A G140U,≤ -4.2
3,A17G C38A U45A C69A C85U A142C C149U U151G,≤ -4.2
4,C18G C43A A52C G71A A91U C95G U146C,≤ -4.2
5,A17G G83U A107U U135C,≤ -4.2
6,A17C U82A C85A C93U,≤ -4.2
7,A17U A22U A26G G34U C57U G59A C93U,≤ -4.2
8,A17G A21G A29G G81A C93G G112U C118A U135A,≤ -4.2
9,A17G A39G U56A C85G A115G,-3.92
10,C18G C32G A66U A89G C95G A107U,≤ -4.2
11,A17G C27A,≤ -4.2
12,A17G C35U C36U C95U,≤ -4.2
13,A17U A26C G62A G86U C99U U134C A137U G140A A147U,≤ -4.2
14,A17G A20C A24C U44C A66U C103U U134G,≤ -4.2
15,A17G G58C U61G G71U G86C U104G G143C,≤ -4.2
16,A17U C57G,-0.677
17,A17G A19U U53A U56G A60U C69G U111G A142G,≤ -4.2
18,A17G C18A G84C C93U,-3.84
19,A17G C43A C54U C93G,≤ -4.2
20,A17U A37G U82A U144A,-2.56
21,A17U C36A C54U G74C A120U U144A,≤ -4.2
22,C18A U56A C85G C96A,-3.54
23,A17G A29U G67U G100A C123G C132G,≤ -4.2
24,A17G G62U G68U C96A C105G U134G,≤ -4.2

row,Variant,polymerase ribozyme fitness (log ratio)
1,A17U G58A C76U C87A A120G G133U,≤ -4.2
2,A17G G59U G80A C85A,-0.447
3,A17G G48A,-1.03
4,A17U A26U U45A A64G C85G A138G G143U,≤ -4.2
5,A17G G50U,0.372
6,A17G G50C,-2.81
7,A17G C35U U53A G94A,-1.28
8,A17G A37C A91G C99A A107G U139G G143U U148C,≤ -4.2
9,A17G C54G,-1.5
10,A17U A39C A60C G86C C87A,≤ -4.2
11,A17G C27G A66G A107G A115C,≤ -4.2
12,A17U C32A A37U A41U,≤ -4.2
13,A17G A39C A40C A73G G94C U134G,≤ -4.2
14,A17G C35A G67C C96U C114U C116U,≤ -4.2
15,A17G G143U,-2.24
16,A17U A19G A22U C93A,-4.01
17,A17U G42A A91C A122U G136C,≤ -4.2
18,A17G A40U U55A U56A C103A A119G U134A,≤ -4.2
19,A17G G84U G126A,-1.39
20,A17G G48C G94A C95U,-3.29
21,A17U C57U G136A,0.435
22,A17G C57U A113C,-3.96
23,A17G A60G C85G A89U,-2.31
